{"source": "paper PMC6044281", "about": "“Cooperative Domain Formation by Homologous Motifs in HOIL-1L and SHARPIN Plays A Crucial Role in LUBAC Stabilization” (Cell reports, 2018)", "molecules": {"B1": {"name": "mHOIP_(474–630) (domain or fragment, mouse, UniProt Q924T7 474-630, looked up)", "chain": "RQDKMRKEGLQLVSMIQEGETAGASPEEVFSALQYSGTEVPLQWLRSELSYVLEMVAELAGQQDPELGAFSCQEARKAWLDRHGNLDEAVEECVRARRRKVHELQSLGFGPKEGSLQALFQHGGDVARALTELQRQRLEPFHQRLWDRDPEPTPCWD", "notes": "also called double-UBA (D-UBA) domain"}, "B2": {"name": "mHOIL-1L_(1–140) (domain or fragment, mouse, UniProt Q9WUB0 1-140, looked up)", "chain": "MDEKTKKAEEMALSLARAVAGGDEQAAIKYATWLAEQRVPLRVQVKPEVSPTQDIRLCVSVEDAYMHTVTIWLTVRPDMTVASLKDMVFLDYGFPPSLQQWVVGQRLARDQETLHSHGIRRNGDGAYLYLLSARNTSLNP", "notes": "mouse HOIL-1L, LTM and UBL, aa 1-140; Used as SPR analyte and in the crystal; also called HOIL-1L LTM-UBL (aa 1–140); mHOIL-1L containing UBL (aa 1–140)"}, "B3": {"name": "mSHARPIN_(163–341) (domain or fragment, mouse, UniProt Q91WA6 163-341, looked up)", "chain": "SSGNFKKEELATRLSQAIAGGDEKAAAQVAAVLAQHHVALNVQLMEAWFPPGPIRLQVTVEDATSVLSSSSSAHVSLKIHPHCSIAALQDQVFSEFGFPPAVQRWVIGRCLCMPERSLASYGVSQDGDPAFLYLLSAPREVSGQSLQNSKMDRKLGLFPQSLGLPHDLQPSSSSLPSPS"}, "B4": {"name": "GST-mHOIP_(466–630) (domain or fragment, mouse, UniProt Q924T7 466-630, looked up)", "chain": "SCGDPEKQRQDKMRKEGLQLVSMIQEGETAGASPEEVFSALQYSGTEVPLQWLRSELSYVLEMVAELAGQQDPELGAFSCQEARKAWLDRHGNLDEAVEECVRARRRKVHELQSLGFGPKEGSLQALFQHGGDVARALTELQRQRLEPFHQRLWDRDPEPTPCWD", "notes": "Captured on the SPR chip via an anti-GST antibody; also called mHOIP fragment containing the UBA domains; not shown: GST, N-terminal, kept"}}, "key": {"[1]": {"target": "B4", "experiment": "SPR", "conditions": "response read at end of injection (about 185 s); GST-mHOIP D-UBA WT immobilized with anti-GST antibody; parent: est. 270; read off a plot"}, "[2]": {"target": "B3", "experiment": "crystal structure; LUBAC ternary complex core; sitting-drop vapor diffusion at 20°C, 1.8 M magnesium sulfate, 0.1 M MES pH 6.5; 2.4 Å", "conditions": "both partners purified"}, "[3]": {"target": "B4", "experiment": "SPR; GST-mHOIP D-UBA (aa 466–630; WT or mutant) immobilised on the sensor chip via an anti-GST antibody; one UBL-containing fragment alone as analyte", "conditions": "both partners purified"}, "[4]": {"target": "B1", "experiment": "SEC; analytical size-exclusion chromatography of the LUBAC core subunits", "conditions": "both partners purified"}, "[5]": {"target": "B2", "experiment": "SEC; analytical size-exclusion chromatography of the LUBAC core subunits", "conditions": "both partners purified"}, "[6]": {"target": "T1, mHOIL-1L_(1–189)-strep (mouse, UniProt Q9WUB0 1-189)", "T1 construct": "mouse HOIL-1L LTM-UBL, aa 1-189; Captured on the SPR chip with an anti-strep antibody; also called HOIL-1L_(1–189) (LTM-UBL); not shown: strep, C-terminal, kept", "T1 sequence (looked up)": "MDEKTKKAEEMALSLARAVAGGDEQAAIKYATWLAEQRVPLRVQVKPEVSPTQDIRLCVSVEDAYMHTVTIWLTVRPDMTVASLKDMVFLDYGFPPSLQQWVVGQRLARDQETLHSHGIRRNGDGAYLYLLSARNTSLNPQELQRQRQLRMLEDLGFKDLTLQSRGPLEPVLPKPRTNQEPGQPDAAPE", "experiment": "SPR; mHOIL-1L_(1–189)-strep immobilised on the sensor chip with anti-strep antibody; MBP-mSHARPIN fragments as analytes", "conditions": "both partners purified"}, "[7]": {"target": "T2, mHOIL-1L_(1–140) and mSHARPIN_(163–301) applied together (mouse, UniProt Q9WUB0 1-140; Q91WA6 163-301)", "T2 construct": "mouse HOIL-1L aa 1-140, as m2; The two fragments were mixed and applied together as one SPR analyte; they heterodimerise through their LTMs; also called the two UBL-containing proteins applied simultaneously; both proteins together", "T2 sequence (looked up) 1": "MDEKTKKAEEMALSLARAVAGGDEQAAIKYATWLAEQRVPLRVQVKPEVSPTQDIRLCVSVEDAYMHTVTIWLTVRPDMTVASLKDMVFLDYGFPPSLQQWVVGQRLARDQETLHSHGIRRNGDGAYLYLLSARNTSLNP", "T2 sequence (looked up) 2": "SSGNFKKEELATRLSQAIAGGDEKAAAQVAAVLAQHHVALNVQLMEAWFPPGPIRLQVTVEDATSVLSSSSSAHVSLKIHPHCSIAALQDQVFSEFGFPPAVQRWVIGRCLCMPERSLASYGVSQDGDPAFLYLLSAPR", "experiment": "SPR; GST-mHOIP D-UBA (aa 466–630; WT or mutant) immobilised via an anti-GST antibody; HOIL-1L and SHARPIN fragments applied together as analytes (500 mg/ml each as printed); stability judged by dissociation", "conditions": "both partners purified"}}, "data": [{"molecule": "mHOIL-1L_(1–140) and mSHARPIN_(163–301) applied together (from UniProt Q9WUB0;Q91WA6) mSHARPIN: L176A; I180A", "values": [{"measurement": "response", "setting": "[1]", "result": 70, "unit": "RU"}]}, {"molecule": "mHOIL-1L_(1–140) and mSHARPIN_(163–301) applied together (from UniProt Q9WUB0;Q91WA6) mHOIL-1L: L15A; V19A", "values": [{"measurement": "response", "setting": "[1]", "result": 90, "unit": "RU"}]}, {"molecule": "B1", "values": [{"measurement": "binding result", "setting": "[2]", "result": "binds"}]}, {"molecule": "B2", "values": [{"measurement": "binding result", "setting": "[2]", "result": "binds"}, {"measurement": "Kd", "setting": "[3]", "result": 1340, "unit": "nM"}, {"measurement": "stoichiometry N", "setting": "[4]", "result": 1}]}, {"molecule": "B3", "values": [{"measurement": "stoichiometry N", "setting": "[4]", "result": 1}, {"measurement": "stoichiometry N", "setting": "[5]", "result": 1}]}, {"molecule": "mSHARPIN_(163–301) (domain or fragment, mouse, UniProt Q91WA6 163-301, looked up, No tag is named for these experiments; it may be the same MBP fusion as m12; also called SHARPIN LTM-UBL) SSGNFKKEELATRLSQAIAGGDEKAAAQVAAVLAQHHVALNVQLMEAWFPPGPIRLQVTVEDATSVLSSSSSAHVSLKIHPHCSIAALQDQVFSEFGFPPAVQRWVIGRCLCMPERSLASYGVSQDGDPAFLYLLSAPR", "values": [{"measurement": "Kd", "setting": "[3]", "result": 16000, "unit": "nM"}]}, {"molecule": "MBP-mSHARPIN UBL_(163–301) (domain or fragment, mouse, UniProt Q91WA6 163-301, looked up, not shown: MBP, N-terminal, kept) SSGNFKKEELATRLSQAIAGGDEKAAAQVAAVLAQHHVALNVQLMEAWFPPGPIRLQVTVEDATSVLSSSSSAHVSLKIHPHCSIAALQDQVFSEFGFPPAVQRWVIGRCLCMPERSLASYGVSQDGDPAFLYLLSAPR", "values": [{"measurement": "Kd", "setting": "[6]", "result": 2040, "unit": "nM"}, {"measurement": "koff", "setting": "[6]", "result": 0.00361, "unit": "s⁻¹"}]}, {"molecule": "GST-mHOIP D-UBA (aa 466–630) UBA2^mut (domain or fragment, mouse, UniProt Q924T7 466-630, looked up, also called UBA2^mut [Q607A/L611A/F614A]; not shown: GST, N-terminal, kept) SCGDPEKQRQDKMRKEGLQLVSMIQEGETAGASPEEVFSALQYSGTEVPLQWLRSELSYVLEMVAELAGQQDPELGAFSCQEARKAWLDRHGNLDEAVEECVRARRRKVHELQSLGFGPKEGSLQALFQHGGDVARALTELARQRAEPAHQRLWDRDPEPTPCWD", "values": [{"measurement": "binding result", "setting": "[7]", "result": "binds"}]}, {"molecule": "B4", "values": [{"measurement": "koff", "setting": "[7]", "result": 0.000111, "unit": "s⁻¹"}]}, {"molecule": "GST-mHOIP D-UBA (aa 466–630) UBA1^mut (domain or fragment, mouse, UniProt Q924T7 466-630, looked up, also called UBA1^mut [R474A/L483A/V486A]; not shown: GST, N-terminal, kept) SCGDPEKQAQDKMRKEGAQLASMIQEGETAGASPEEVFSALQYSGTEVPLQWLRSELSYVLEMVAELAGQQDPELGAFSCQEARKAWLDRHGNLDEAVEECVRARRRKVHELQSLGFGPKEGSLQALFQHGGDVARALTELQRQRLEPFHQRLWDRDPEPTPCWD", "values": [{"measurement": "binding result", "setting": "[7]", "result": "binds"}]}]}
